Each block holds one molecule with its values, some of them ahead of it.
Assay: AAE enzyme assay (acyl-CoA synthetase assay) of purified recombinant HuAAE proteins with an array of substrates
Assay type: biochemical
Details: purified recombinant enzyme from E. coli, UPLC-MS/MS peak area (FIG. 6); for activity towards butyric acid (formation of butyryl CoA): substrate butyric acid
Experimental: FIG. 6 includes vertical bar graphs showing recombinant enzyme assays of purified H. umbraculigerum acyl activating enzyme (HuAAE) proteins produced in Escherichia coli cells. Peak area is shown. Various alkyl (short-and medium-chain fatty acids) and aromatic (cinnamic and coumaric acids) substrates were used in the enzyme assays.
All AAE genes from H. umbraculigerum were individually cloned into the pET28b vector and expressed in E. coli BL21 (DE3) cells. Bacterial cells were grown in LB medium at 37° C. When cultures reached Absorbance 600=0.6, protein expression was induced with 200 μM of isopropyl-1-thio-β-d-galactopyranoside (IPTG) at 15° C., for 24 h. Bacterial cells were lysed by sonication in 50 mM Tris-HCl pH 7.5, 500 mM NaCl, 1 mM PMSF, 10% glycerol and protease inhibitor cocktail (Sigma Aldrich). An aliquot of whole-cell extract was kept for further analysis. Soluble protein was purified on Ni-NTA agarose beads (Adar Biotech) and eluted with 300 mM imidazole in buffer containing 50 mM NaH2PO4 pH-7.5 and 300 mM NaCl. The whole-cell extract, and the eluted fractions were analyzed by SDS-PAGE stained with InstatBlue.
Acyl-CoA synthetase assays were performed in a 20 μl reaction mix that contained 0.1 μg recombinant AAE, 50 mM HEPES pH 9, 8 mM ATP, 10 mM MgCl2, 0.5 mM CoA and 4 mM sodium hexanoate for 10 min at 40° C. Reactions were terminated with 2 μl of 1 M HCl and stored on ice until analysis. After centrifugation at 15 000 g for 5 min at 4° C., the samples were diluted 1:100 in water and analyzed by UPLC-MS/MS (Stout et al., 2012). injections were performed on a UPLC (Waters) connected to a Triple Quad detector (TQ-S, Waters) in multiple reaction monitoring (MRM) mode. The chromatographic separation was achieved using a similar column as previously described. The mobile phase consisted of an aqueous buffer pH 7.0 (10 mM Ammonium Acetate, 5 mM NH4HCO2, phase A) and acetonitrile (phase B). The flow rate was 0.3 ml min^−1, and the column temperature was kept at 25° C. Compounds were analyzed using a 15 min multistep gradient method: initial conditions were 1% B raised to 35% B until 10.5 min, and then raised to 100% B until 11 min, held at 100% B for 1 min, decreased to 1% B until 12.5 min, and held at 1% B until 15 min for re-equilibration of the system. The instrument was operated in positive mode with a capillary voltage of 3.0 kV, and a cone voltage of 50 V. Metabolite identity was confirmed with authentic standards (Sigma Aldrich). Two different transitions were used for analysis of: acetyl-CoA (810.52>303.30, 27.0V; 810.52>428.25, 24.0V); butyryl-CoA (838.58>331.30, 28.0 V; […]); hexanoyl-CoA (866.65>359.40, 28.0 V; 866.65 >428.25, 26.0 V); octanoyl-CoA (894.65>387.55, 30.0 V; 894.65>428.25, 28.0 V); coumaroyl-CoA (914.59>407.37, 30.0 V; 914.59>428.25, 28.0 V); cinnamoyl-CoA (898.59>391.37, 30.0 V; 898.59>428.25, 28.0 V).
Next, the inventors individually recombinantly expressed six of the eleven AAEs, each in E. coli, purified respective proteins, and examined their activity using array of substrates (acetic acid, butyric acid, hexanoic acid, octanoic acid, cinnamic acid and coumaric acid).

activity towards butyric acid (formation of butyryl CoA): efficiently produced butyryl CoA
B1: HuAAE2: H. umbraculigerum acyl activating enzyme, recombinantly expressed in E. coli and purified (protein)
chain: MDALRKPNSANSSPLTPIGFLERAAVVFANSPSIVYNNLIYTWSDTFHRCLRLASSISRLAIRKGDVVSVLAPNIPAIYELHFGITMTGAIINTINTRLDARTISILLCHSESKLVFVDYQLTRLIREAVSLMPDACVPPQLVLIVDDGHNLSLLSDQFINTYEAMVETGDPGFNWVRPDSDWDPLTLNYTSGTTSSPKGVVNSHRGSFIVAFDSLLEWHVPKQPIMLWTLPMFHANGWSFVWGMAAVGGTNVCLRKFDATIIYDTIRNHHVTHMCGAPVVLNMLSEGKPLEHTVHIMTAGAPPPAAVLLRTESLGFEVTHGFGMTETGGLVVSCSWKKEWNRLPVTEKARLKARQGVRTLGMTEVDIVDPESGVSVTRDGLTQGELVLRGGSIMLGYLKDPETTNKSVKNGWFYTGDVAVMHPDGYLEIKDRSKDVIISGGENISSVEVESILYQHPAINEAAVVGRPDEFWGESPCAFVSLKDDNGKVAVPTADEIMKFCKGKLPGYMVPKSVVFKKDLPKTSTGKIQKYVLRKLAKDLGFAVKSRI

activity towards butyric acid (formation of butyryl CoA): efficiently produced butyryl CoA
B2: HuAAE4: H. umbraculigerum acyl activating enzyme, recombinantly expressed in E. coli and purified; great homology to CsAAE1 (protein)
chain: MVYKSLNSISISDIVNLGISPETATQLHQKLTEIIQIYGFDAPQTWTQISTRILHPDLPFCFHQMMYYGCYVDFGPDPPAWSPDPKDAKLTNIGSLLERRGKEFLGPSYKDPISSYSALQEFSALNLEVFWKTILDEMNITFSVPPKRILVDDLSKESQLLHPGGRWLPGAYVNPARNCLSLSSKRRLSDIAVIWRDEGNDDMPVNKMTFQQLRSEVWLVAYALDTLGVEKGSAIAIDMPMDVKSVVIYLAIVLAGYVVVSIADSFAAGEISTRLVLSKAKAIFTQDLIIRGDRSHPLYSRVVDAQSPLAIVIPTRGSSFSIKLRDGDISWHDFLERANTYRNVEFVAVERPVEAFSNILFSSGTTGEPKAIPWTLATPFKAGADAWCHMDVHKGDVVAWPTNLGWMMGPWLIYASLLNGGSLALYNGSPLTSGFAKFVQDAKVTLLGVIPSIVRAWRTNNSTAGFDWSTIRCFGSTGEASNTDECLWLMGRAHYKPVIEYCGGTEIGGGFITGSLLQPQCLSAFSTPSLGCKLLILGEDGIPIPQNAPGIGELALNPLMFGASSTLLNANHYDVYFKGMPSWNGKVLRRHGDVFERTSKGYYRAHGRADDTMNLGGIKVSSVEIERVCNSIDDRILETAAIGVTPSGGGPERLVIVVAFKDGSGSKPDLIKLKVTLNSALQKNLNPLFKVSDVVPFPSLPRTATNKVMRRVLRQQLTQIGQNSKL

activity towards cinnamic acid (formation of cinnamoyl CoA) (substrate cinnamic acid): reacted | activity towards coumaric acid (formation of coumaroyl CoA) (substrate coumaric acid): reacted | activity towards hexanoic acid (substrate hexanoic acid): very high activity | activity towards octanoic acid (substrate octanoic acid): very high activity
B3: HuAAE6: H. umbraculigerum acyl activating enzyme, recombinantly expressed in E. coli and purified; similar to long-chain acyl-CoA synthetases (protein)
chain: MSVYTVKVEDSRAASGETPSAGPVYRCIYAKDALMELPPGYESPWDFFSESVKRNPKNPALGRRQVIDGKAGGYSWLSYQEAYNSALRIASAIRSRSVNPGDRCGIYGPNCPEWIISMEACNSNGITYVPLYDTLGANAVEYIINHAEISLVFVQENKLSAILSCLPNCSSNLKTIVSFGKFSESQKNEAMEHGVDCFSWEEFSSMGNLEDELPAKNKTDICTIMYTSGTTGEPKGVVLSNRAFMSEVLSMHELLIETDKPGTEEDTYFSFLPLAHIFDQIMETYFIYSGASIGFWQGDIRYLIEDLLVLQPTIFCGVPRVYDRIYTGIMAKISTGGAIRKALFDFAYNYKLRNLEKGIQQDKSAPLLDKLVFDKIKQGFGGRVRLMLSGAAPLPKHVEEFLRVTCCTVLSQGYGLTESCGGCFTSIANVYSMIGTVGVPMTTIEARLESVPEMGYDALSSVPCGEICLRGNTLFSGYHKRDDLTDAVLVDGWFHTGDIGEWQADGAMKIIDRKKNIFKLSQGEYVAVESIESTYSRCPLVTSIWVYGNSFESFLVAVVVPDRVAVEEFAAKNNESGDYASLCKNPNVRKYVLEELNAEAQCNKLRGFEMLKAVHLDPVPFDFERDLITPTFKLKRQQLLKYYKDCVEQLYAEAKTSKK

activity against acetic acid (formation of acetyl CoA) (substrate acetic acid): great activity
B4: HuAAE3: H. umbraculigerum acyl activating enzyme, recombinantly expressed in E. coli and purified (protein)
chain: MTEEEKNKAESMGIKTYAWSDFLHLGSKNPSELQTPKATDICTIMYTSGTSGDPKGVILTHENATTNIRGVDLFMEQFEDKMTVDDVYISFLPLAHILDRMIEEYFFRSGASVGFYHGDINALKEDLAELKPTFLAGVPRVLEKIHEGVLKGLEEVNPRRRKIFSILYNHKLKYMKAGYKHKYASPLADLLAFRKVKNRLGGRIRLMVSGGAPLSTEIEEFMRVTSCAFVAQGYGLTETCGLATLGFPDEMCMIGTVGSPFVYTELRLEEVSDMGYDPLANPPRGEICVKGKTPFAGYYKNPELTNEVMKDGWFHTGDIGEMQPNGVLKIIDRKKHLIKLSQGEYIALEYLEKVYCITPILEDIWVYGDSFKSSLVAVAVPNKENAEKWADQKGLKVSYSELCTLTQFRDYIQSELKSTAERNKLRGFEHIKAIIVEPRTFEGDQELLTATMKKRRNKLLNRYKEGIDNLYKNLAANKR

From US20240150744A1, “ACYL ACTIVATING ENZYME AND A TRANSGENIC CELL, TISSUE, AND ORGANISM COMPRISING SAME” (YEDA RESEARCH AND DEVELOPMENT CO. LTD., priority 2021, published 2024)
